{
  "source": "patent US20070049518A1",
  "about": "“Novel method of treatment of inflammatory skin conditions” (priority 2005, published 2007)",
  "key": {"single chain pro-uPA": {"system": "single chain pro-uPA", "assay": "Activation of pro-uPA by aureolysin", "assay_type": "biochemical", "details": "Expt. 1, 2.5 h"}, "[1]": {"target": "T1, proenzyme of human rheumatoid synovial fibroblast collagenase (proMMP-1) (Homo sapiens, UniProt P03956)", "T1 construct": "the proenzyme of human rheumatoid synovial fibroblast collagenase (Calbiochem); purchased Calbiochem; host or cells: human rheumatoid synovial fibroblasts (as the product's name says)", "T1 sequence (P03956 20-469)": "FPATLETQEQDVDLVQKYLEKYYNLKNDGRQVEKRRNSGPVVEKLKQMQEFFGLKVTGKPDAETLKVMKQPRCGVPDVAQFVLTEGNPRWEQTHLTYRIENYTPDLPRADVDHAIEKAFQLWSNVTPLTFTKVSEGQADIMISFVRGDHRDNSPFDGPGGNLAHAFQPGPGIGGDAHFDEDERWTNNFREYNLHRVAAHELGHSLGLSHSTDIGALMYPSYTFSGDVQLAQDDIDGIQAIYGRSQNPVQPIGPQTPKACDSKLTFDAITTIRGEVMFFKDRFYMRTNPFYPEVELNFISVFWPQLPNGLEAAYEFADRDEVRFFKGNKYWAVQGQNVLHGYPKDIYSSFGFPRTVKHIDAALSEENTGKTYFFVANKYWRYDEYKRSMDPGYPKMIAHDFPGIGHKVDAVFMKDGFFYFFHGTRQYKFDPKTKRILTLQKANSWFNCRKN", "assay_type": "biochemical", "details": "for α1-chain ¾ - length product: aureolysin 3 μg/ml and/or 1 mM APMA", "description": "(§1) Collagenase activity in the samples was then determined by incubation at 25° C. in TCNB containing 0.1 μg/ml (pro)MMP-1 and 0.16 mg/ml porcine type I collagen (MD Biosciences)."}, "[2]": {"system": "proenzyme of human rheumatoid synovial fibroblast collagenase (proMMP-1)", "assay_type": "biochemical", "details": "aureolysin alone±APMA", "description": "as §1"}, "[3]": {"system": "Human skin epidermal keratinocytes", "assay": "Keratinocyte activation, IL-8 production", "assay_type": "cell-based", "details": "48 hours, aureolysin 50 μg/ml", "source_text": "Activated keratinocytes produce IL-8, a proinflammatory chemokine. Many bacterial products cause the activation of keratinocytes. Aureolysin may be evaluated for its effects on IL-8 production by keratinocytes. Human skin epidermal keratinocytes (TCS Cellworks) are maintained as per instructions. Proliferating cultures are trypsinised, harvested, treated with a trypsin inhibitor and resuspended in growth medium at approximately 50,000 cells/well, to provide confluent monolayers in 96 well plates. Cells are incubated overnight at 37° C. at 5% CO2 to allow recovery, the spent medium aspirated from the wells and replaced with fresh growth medium. The cells are incubated at 37° C. at 5% CO2 for a further 24 or 48 hours with aureolysin or buffer control.\nThe supernatants are removed from each well and the concentration of IL-8 is determined using a human IL-8 ELISA development kit from R&D systems (Catalog Number: DY208) using the manufacturers instructions.\nIn these experiments, the cells are incubated at 37° C. at 5% CO2 for 48 hours with aureolysin or buffer control. Poly IC and lipoteichoic acid (LTA), which stimulate IL-8 production in keratinocytes were used as positive controls."}},
  "note": "Where two headings read alike, the source gives them in different places.",
  "data": [
    {"substance": "aureolysin: metalloprotease (EC 3.4.24.29) secreted by Staphylococcus aureus, single chain of 301 amino acids", "values": [
      {"measurement": "Urokinase activity after pro-uPA activation", "setting": "single chain pro-uPA; aureolysin 0.1 μg/ml, MES pH 5.6", "result": 2.31, "unit": "A405/0.5 h/μg"},
      {"measurement": "Urokinase activity after pro-uPA activation", "setting": "single chain pro-uPA; aureolysin 0.1 μg/ml, Tris-HCl pH 7.5", "result": 0.65, "unit": "A405/0.5 h/μg"},
      {"measurement": "Urokinase activity after pro-uPA activation", "setting": "single chain pro-uPA; aureolysin 0.3 μg/ml, MES pH 5.6", "result": 3.76, "unit": "A405/0.5 h/μg"},
      {"measurement": "Urokinase activity after pro-uPA activation", "setting": "single chain pro-uPA; aureolysin 0.3 μg/ml, Tris-HCl pH 7.5", "result": 1.43, "unit": "A405/0.5 h/μg"},
      {"measurement": "Urokinase activity after pro-uPA activation", "setting": "single chain pro-uPA; aureolysin 1 μg/ml, MES pH 5.6", "result": 4.68, "unit": "A405/0.5 h/μg"},
      {"measurement": "Urokinase activity after pro-uPA activation", "setting": "single chain pro-uPA; aureolysin 1 μg/ml, Tris-HCl pH 7.5", "result": 3.29, "unit": "A405/0.5 h/μg"},
      {"measurement": "α1-chain ¾ - length product", "setting": "[1]; Time 0 h", "result": 0, "unit": "arbitrary units"},
      {"measurement": "α1-chain ¾ - length product", "setting": "[1]; Time 0.5 h", "result": 1709, "unit": "arbitrary units"},
      {"measurement": "α1-chain ¾ - length product", "setting": "[1]; Time 1 h", "result": 3726, "unit": "arbitrary units"},
      {"measurement": "α1-chain ¾ - length product", "setting": "[1]; Time 1.5 h", "result": 5115, "unit": "arbitrary units"},
      {"measurement": "α1-chain ¾ - length product", "setting": "[1]; Time 2 h", "result": 8742, "unit": "arbitrary units"},
      {"measurement": "α1-chain ¾ - length product", "setting": "[1]; Time 3 h", "result": 12718, "unit": "arbitrary units"},
      {"measurement": "α1-chain ¾ - length product", "setting": "[1]; Time 4 h", "result": 16882, "unit": "arbitrary units"},
      {"measurement": "α1-chain ¾ - length product", "setting": "[1]; Time 5 h", "result": 17558, "unit": "arbitrary units"},
      {"measurement": "α1-chain ¾ - length product", "setting": "[1]; Time 6 h", "result": 19436, "unit": "arbitrary units"},
      {"measurement": "Relative rate of collagen cleavage", "setting": "[1]; relative to untreated control (MMP-1 alone = 1)", "result": 3},
      {"measurement": "collagenase activity of control incubations without proMMP-1 (in words)", "setting": "[2]", "result": "no activity"},
      {"measurement": "IL-8 ± SE", "setting": "[3]", "result": 687, "unit": "pg/mL"},
      {"measurement": "IL-8 ± SE", "setting": "[3]; listed as Aureolysin", "result": "687 ± 0.7", "unit": "pg/mL"}
    ]}
  ]
}
